Biological target: the molecule itself
Test: cross-linking; disulfide cross-link at Cys43 of freshly purified kinase; diluted in KPE buffer (10 mM potassium phosphate, 1 mM EDTA, pH 7.0) with 0, 5 or 15 mM DTT, 1 h on ice; maleimide in SDS sample buffer, nonreducing 9% SDS-PAGE without heating, anti-Flag Western blot

B1: Flag-tagged WT PKGIα (type I cGMP-dependent protein kinase, alpha isoform) (enzyme, UniProt Q13976 1-671, looked up)
chain: MSELEEDFAKILMLKEERIKELEKRLSEKEEEIQELKRKLHKCQSVLPVPSTHIGPRTTRAQGISAEPQTYRSFHDLRQAFRKFTKSERSKDLIKEAILDNDFMKNLELSQIQEIVDCMYPVEYGKDSCIIKEGDVGSLVYVMEDGKVEVTKEGVKLCTMGPGKVFGELAILYNCTRTATVKTLVNVKLWAIDRQCFQTIMMRTGLIKHTEYMEFLKSVPTFQSLPEEILSKLADVLEETHYENGEYIIRQGARGDTFFIISKGTVNVTREDSPSEDPVFLRTLGKGDWFGEKALQGEDVRTANVIAAEAVTCLVIDRDSFKHLIGGLDDVSNKAYEDAEAKAKYEAEAAFFANLKLSDFNIIDTLGVGGFGRVELVQLKSEESKTFAMKILKKRHIVDTRQQEHIRSEKQIMQGAHSDFIVRLYRTFKDSKYLYMLMEACLGGELWTILRDRGSFEDSTTRFYTACVVEAFAYLHSKGIIYRDLKPENLILDHRGYAKLVDFGFAKKIGFGKKTWTFCGTPEYVAPEIILNKGHDISADYWSLGILMYELLTGSPPFSGPDPMKTYNIILRGIDMIEFPKKIAKNAANLIKKLCRDNPSERLGNLKNGVKDIQKHKWFEGFNWEGLRKGTLTPPIIPSVASPTDTSNFDSFPEDNDEPPPDDNSGWDIDF
notes: PKGIα, the alpha isoform of type I cGMP-dependent protein kinase; On oxidation the two chains of the homodimer are joined by a disulfide between their Cys43 residues; source: HEK293T, transiently transfected, purified (anti-Flag beads, eluted in PBS with Flag peptide)
  stoichiometry N: 2
